From patent publication US20130196933A1

Legend:
[1] = biological target: T7-FoxM1B WT protein (CMV T7-FoxM1B; CMV WT FoxM1B 1-748) (human) (UniProt Q08050); experiment: cell-based or functional assay
Cdk1 protein (human) = Cdk1 protein (human) (UniProt P06493); experiment: cell-based or functional assay
Chain of Cdk1 protein (human) (P06493 whole entry): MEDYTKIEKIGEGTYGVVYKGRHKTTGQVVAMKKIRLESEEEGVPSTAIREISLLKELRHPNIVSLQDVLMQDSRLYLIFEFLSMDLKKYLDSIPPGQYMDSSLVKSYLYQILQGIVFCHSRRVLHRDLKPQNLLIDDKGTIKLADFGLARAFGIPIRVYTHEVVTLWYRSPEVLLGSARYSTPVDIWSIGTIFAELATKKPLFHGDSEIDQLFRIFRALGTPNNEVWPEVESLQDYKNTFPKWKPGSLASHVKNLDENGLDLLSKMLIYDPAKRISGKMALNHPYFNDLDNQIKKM

## CBP protein (CREB Binding Protein, CMV-CBP) (enzyme)
[1]
  FoxM1B transcriptional activity (6×FoxM1B TATA-luciferase reporter, U2OS cells) (% stimulation): 50

## T7-FoxM1B L641A mutant protein (from UniProt Q08050 1-763)
Cdk1 protein (human)
  FoxM1B transcriptional activity (6×FoxM1B TATA-luciferase reporter, U2OS cells): 80 % reduction
